Patent publication US20040254351A1

Molecular target: G-CSF receptor
Test: cell-based or functional assay

EC50/Neupogen (reporter activity in cells expressing the G-CSF receptor) (ratio to Neupogen)	Substance
0.66	G-CSF[C17A] (from UniProt P09919 31-207) (ligand)
0.38	Wild-type G-CSF (from UniProt P09919 31-207) (ligand)
